Assay [1] concerns the target coat protein of ssRNA bacteriophage AVE016 (uncultured ssRNA bacteriophage AVE016 (metagenome-derived)). As to the kind of experiment: crystal structure.
Assay [2] concerns the target coat protein of ssRNA bacteriophage EMS014 (uncultured ssRNA bacteriophage EMS014 (metagenome-derived)). As to the kind of experiment: crystal structure.

With “coat protein of ssRNA bacteriophage AVE016 (natural protein)”, the stoichiometry N (in general, the number of molecules, sites or subunits per partner or assembly) in assay [1] was found to be 210 CP monomers.

In assay [2], “coat protein of ssRNA bacteriophage EMS014 (natural protein)” returned a stoichiometry N of 2.
